Results on 1 molecule are retold here after paper PMC7900914 (Nature structural & molecular biology, 2017).

The target in this assay is HLA-B*57:01–TW10 (human |  | HIV-1). The assay is described as follows: SPR. Background: SPR reads the build-up and loss of mass on a sensor chip optically.

B1: KIR3DL1*001 (similar construct, from insect cells) (receptor)
chain: HMGGQDKPFLSAWPSAVVPRGGHVTLRCHYRHRFNNFMLYKEDRIHIPIFHGRIFQESFNMSPVTTAHAGNYTCRGSHPHSPTGWSAPSNPVVIMVTGNHRKPSLLAHPGPLVKSGERVILQCWSDIMFEHFFLHKEGISKDPSRLVGQIHDGVSKANFSIGPMMLALAGTYRCYGSVTHTPYQLSAPSDPLDIVVTGPYEKPSLSAQPGPKVQAGESVTLSCSSRSSYDMYHLSREGGAHERRLPAVRKVNRTFQADFPLGPATHGGTYRCFGSFRHSPYEWSDPSDPLLVSVTGNPS
The Kd is the constant that tells how readily two partners part at equilibrium. The low end stands for a tighter complex, the high end for a looser complex. With B1, the Kd is ~60 µM.
